Source: article PMC11910330, “Familial Alzheimer’s disease mutations in amyloid precursor protein impair calcineurin signaling to NMDA receptors” (The Journal of Biological Chemistry, 2024)

The binders below were run against recombinant GST-tagged CaN A subunit, Q08209 (assay: in vitro peptide pull-down (biotinylated peptide, immunoblot quantification)). Conditions: chain shown with the change; recombinant GST-CaN (200 ng); parent: est. 47; read off a plot.

**Q.** Which response (% CaN input recovered) does the source give for MAGPHTMIVITGPHEE [APP peptide (APP core CaN-binding sequence in the PVIVIT peptide) V640M] here?
**A.** 43

**Q.** MAGPHTVIFITGPHEE [APP peptide (APP core CaN-binding sequence in the PVIVIT peptide) V642F] was tested. Which response (% CaN input recovered) did it give?
**A.** 44

**Q.** How did the response (% CaN input recovered) turn out when MAGPHTVFVITGPHEE [APP peptide (APP core CaN-binding sequence in the PVIVIT peptide) I641F] was run?
**A.** 23

**Q.** Which response (% CaN input recovered) does the source give for MAGPHIVIVITGPHEE [APP peptide (APP core CaN-binding sequence in the PVIVIT peptide) T639I] here?
**A.** 54

**Q.** With MAGPHTVIIITGPHEE [APP peptide (APP core CaN-binding sequence in the PVIVIT peptide) V642I] as the binder, how does the response (% CaN input recovered) read?
**A.** 44

**Q.** MAGPHTVIVIPGPHEE [APP peptide (APP core CaN-binding sequence in the PVIVIT peptide) T644P] was tested. Which response (% CaN input recovered) did it give?
**A.** 5
